Measurements as given in US20200188528A1 (FRED HUTCHINSON CANCER RESEARCH CENTER, published 2020).

B1: anti-BACE1 peptide-antibody complex (peptide of SEQ ID NO: 1 fused to the anti-BACE1 antibody heavy chain, SEQ ID NO: 429, assembled with the anti-BACE1 … (antibody)
heavy: not shown
light: DIQMTQSPSSLSASVGDRVTITCRASQDVSTAVAWYQQKPGKAPKLLIYSASFLYSGVPSRFSGSGSGTDFTLTISSLQPEDFATYYCQQFPTYLPTFGQGTKVEIKRTVAAPSVFIFPPSDEQLKSGTASVVCLLNNFYPREAKVQWKVDNALQSGNSQESVTEQDSKDSTYSLSSTLTLSKADYEKHKVYACEVTHQGLSSPVTKSFNRGEC
B2: anti-BACE1 antibody comprising an anti-BACE1 antibody heavy chain of SEQ ID NO: 427 and an anti-BACE1 antibody light chain of SEQ ID NO: 428 (antibody, human IgG1, kappa)
heavy: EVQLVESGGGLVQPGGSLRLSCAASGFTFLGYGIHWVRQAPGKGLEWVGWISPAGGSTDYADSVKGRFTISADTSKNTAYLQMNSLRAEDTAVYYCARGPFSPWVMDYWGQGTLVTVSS
light: B1 light

Molecular target: BACE1 (beta-secretase, beta-site APP cleaving enzyme), endogenous enzyme of HEK/hAPP cells (human, UniProt P56817 46-501)
Sequence (P56817 46-501): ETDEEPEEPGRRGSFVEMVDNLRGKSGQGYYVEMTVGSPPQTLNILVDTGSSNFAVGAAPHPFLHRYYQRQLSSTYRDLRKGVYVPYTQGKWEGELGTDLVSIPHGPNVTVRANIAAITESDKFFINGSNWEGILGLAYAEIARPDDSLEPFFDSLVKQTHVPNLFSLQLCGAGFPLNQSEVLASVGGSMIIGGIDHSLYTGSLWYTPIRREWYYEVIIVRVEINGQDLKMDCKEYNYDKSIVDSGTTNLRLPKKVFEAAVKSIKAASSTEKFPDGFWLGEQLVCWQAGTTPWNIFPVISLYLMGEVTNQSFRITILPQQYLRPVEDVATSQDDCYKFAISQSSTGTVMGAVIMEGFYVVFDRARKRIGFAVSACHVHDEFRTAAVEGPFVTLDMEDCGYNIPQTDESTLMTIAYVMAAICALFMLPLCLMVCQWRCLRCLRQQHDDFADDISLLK
Experiment: cell-based or functional assay

Row | Binder | IC50 (read off the curve), Aβ1-40 secretion from HEK/hAPP cells (HTRF, Percent of Cntl)
1 | B1 | ~10 nM
2 | B2 | ~10 nM
